According to patent US20190040115A1 (IMMATICS BIOTECHNOLOGIES, published 2019):

Molecular target: T1, HLA-A*02:01 (human)
T1 construct: captured on streptavidin plates; also called peptide-receptive MHC molecules
Experiment: UV peptide exchange ELISA (anti-b2m); yield grade: + >10%, ++ >20%, +++ >50, ++++ >75%
Summary of the method: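 Peptide–HLA-A*02:01 complexes were formed by UV cleavage of a photolabile ligand and exchange with the test peptide. Exchange products were diluted 100-fold, captured on streptavidin and detected with HRP-anti-β2m (TMB, 450 nm). Yield was read against refolded HLA-A*02:01/MLA-001 monomer standards (15-500 ng/ml).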

Row | Binder | peptide exchange yield [%]
1 | QIDSIHLLL | 50 to 75
2 | SIIPYLLEA | > 75
3 | TLLEVDAIVNA | > 75
4 | GLLDVMYQV | > 75
5 | LLDAFSIKL | 50 to 75
6 | IIDDKPIGL | 50 to 75
7 | ILDGIIREL | 50 to 75
8 | ILDYIHNGL | 50 to 75
9 | LLDMSLVKL | 50 to 75
10 | FMYAGQLTL | > 75
11 | NLDATVTAL | 50 to 75
12 | SIDDVVKKL | 20 to 50
13 | IIDPPLHGQLL | 20 to 50
14 | GLDTILQNL | > 75
15 | NLPNTNSILGV | 50 to 75
16 | FLDDGNQML | 50 to 75
17 | NLQEKVPEL | 50 to 75
18 | NLPSELPQL | 50 to 75

Row | Binder | peptide exchange yield [%]
19 | GLDKVITVL | 50 to 75
20 | KLPGFPTQDDEV | 20 to 50
21 | SLDEVAVSL | > 75
22 | AVDNILLKL | 50 to 75
23 | ALKDLVNLI | > 75
24 | ILDNSPAFL | 50 to 75
25 | SLAGLVLYV | > 75
26 | LIDEAAQML | 50 to 75
27 | FADELSHLL | 50 to 75
28 | FLAEAARSL | > 75
29 | ELDKIYETL | 10 to 20
30 | HTLPHEIVVNL | 50 to 75
31 | ILLDRLFSV | > 75
32 | GTIPLIESL | 10 to 20
33 | LLDALQHEL | 50 to 75
34 | LLAKAVQNV | 50 to 75
35 | GIDDLHISL | 50 to 75
